Source: US20150164800A1, “REGULATING THE INTERACTION BETWEEN TAM LIGANDS AND LIPID MEMBRANES WITH EXPOSED PHOSPHATIDYL SERINE” (priority 2012, published 2015)

Tests used:
Axl [1] = biological target: Axl (Mus musculus, UniProt Q00993); assay type: cell-based
Mer [2] = biological target: T1, Mer (Mus musculus, UniProt Q60805); assay type: cell-based; conditions: WT-BMDCs
Mer [3] = biological target: T1, Mer; assay: Gas6-stimulated TAM receptor activation (phosphotyrosine IP-immunoblot) in BMDMs, Mer; assay type: cell-based; conditions: WT-BMDMs pre-treated 30 min, stimulated with 10 nM Gas6 for 10 min; FIG. 4B
Experimental: Immunoprecipitation and immunoblot analysis was conducted as described above.

EbGP-pseudotyped virus = assay type: cell-based, mouse; conditions: 300 nM, 24 h post-infection, FIG. 4C
Axl [4] = assay type: cell-based, mouse; conditions: 100 nM, BMDCs; FIG. 5B
DENV = conditions: Axl-expressing HEK293 cells; concentration approximately 7-fold higher than 100 nM; Meertens et al. (2012); cited from earlier work

Axl (Mus musculus, UniProt Q00993), sequence (Q00993 19-888): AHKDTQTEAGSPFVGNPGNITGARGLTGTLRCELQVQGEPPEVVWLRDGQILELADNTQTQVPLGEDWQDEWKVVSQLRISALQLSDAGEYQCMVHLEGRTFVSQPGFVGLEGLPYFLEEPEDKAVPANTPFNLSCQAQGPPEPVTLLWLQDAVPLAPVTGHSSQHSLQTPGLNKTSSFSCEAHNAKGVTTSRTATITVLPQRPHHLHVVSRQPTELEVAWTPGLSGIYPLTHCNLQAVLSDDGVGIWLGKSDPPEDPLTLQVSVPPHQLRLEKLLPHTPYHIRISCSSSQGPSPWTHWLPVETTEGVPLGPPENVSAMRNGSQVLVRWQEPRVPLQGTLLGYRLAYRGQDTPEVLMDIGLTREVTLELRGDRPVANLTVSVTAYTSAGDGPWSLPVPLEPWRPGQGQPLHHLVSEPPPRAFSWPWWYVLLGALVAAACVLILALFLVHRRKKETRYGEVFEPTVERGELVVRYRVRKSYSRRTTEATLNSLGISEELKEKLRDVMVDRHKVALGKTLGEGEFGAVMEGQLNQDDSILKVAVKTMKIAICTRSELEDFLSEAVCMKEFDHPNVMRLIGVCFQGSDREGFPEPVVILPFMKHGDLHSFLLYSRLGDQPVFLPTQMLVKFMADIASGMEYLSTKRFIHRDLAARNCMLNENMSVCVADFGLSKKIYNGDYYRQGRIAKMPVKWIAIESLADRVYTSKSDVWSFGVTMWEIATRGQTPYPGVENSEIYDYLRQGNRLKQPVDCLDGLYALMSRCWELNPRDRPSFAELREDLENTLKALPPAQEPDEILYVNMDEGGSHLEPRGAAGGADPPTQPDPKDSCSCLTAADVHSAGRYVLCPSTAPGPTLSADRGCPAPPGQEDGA
T1 sequence (Q60805 19-994): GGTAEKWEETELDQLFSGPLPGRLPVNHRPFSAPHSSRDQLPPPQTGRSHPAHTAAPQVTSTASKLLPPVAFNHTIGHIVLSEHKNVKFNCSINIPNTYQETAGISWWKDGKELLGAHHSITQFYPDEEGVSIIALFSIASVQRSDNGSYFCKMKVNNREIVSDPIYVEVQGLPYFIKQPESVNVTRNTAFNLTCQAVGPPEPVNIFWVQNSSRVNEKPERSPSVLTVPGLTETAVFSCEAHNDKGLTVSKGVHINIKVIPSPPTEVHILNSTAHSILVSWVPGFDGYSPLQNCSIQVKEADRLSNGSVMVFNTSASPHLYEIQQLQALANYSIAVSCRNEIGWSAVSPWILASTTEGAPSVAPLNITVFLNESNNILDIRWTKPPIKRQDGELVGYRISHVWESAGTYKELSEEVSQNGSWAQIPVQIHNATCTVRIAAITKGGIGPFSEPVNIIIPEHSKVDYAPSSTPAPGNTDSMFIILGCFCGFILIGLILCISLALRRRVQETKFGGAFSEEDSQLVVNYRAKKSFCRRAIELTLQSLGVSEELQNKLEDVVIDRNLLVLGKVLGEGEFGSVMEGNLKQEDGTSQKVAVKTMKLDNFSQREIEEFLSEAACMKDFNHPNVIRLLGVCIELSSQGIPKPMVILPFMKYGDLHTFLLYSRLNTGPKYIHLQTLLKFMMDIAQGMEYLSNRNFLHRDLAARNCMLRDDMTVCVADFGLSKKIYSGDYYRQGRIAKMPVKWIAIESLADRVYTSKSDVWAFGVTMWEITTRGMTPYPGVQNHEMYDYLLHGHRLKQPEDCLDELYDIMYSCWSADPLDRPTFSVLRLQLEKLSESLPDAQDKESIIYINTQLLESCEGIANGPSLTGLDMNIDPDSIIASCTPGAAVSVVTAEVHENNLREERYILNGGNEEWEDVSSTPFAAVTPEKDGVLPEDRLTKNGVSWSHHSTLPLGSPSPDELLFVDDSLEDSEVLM
Axl, sequence (Q00993 19-888): as the sequence (Q00993 19-888) above

Molecule: Gas6: recombinant mouse Gas6, pan-TAM ligand
- potentiation of Gas6-induced Axl activation by bald HIV-1 virions versus VSVg-pseudotyped virions (Axl [1]; BMDCs, bald virions lacking viral glycoproteins, FIG. 6B): equally competent
- virus-mediated potentiation of ligand-triggered signaling with MAV-1 (Axl) (Axl [1]; WT-BMDCs, 1 nM mGas6 plus non-enveloped MAV-1): not seen
- Axl activation by ligand alone (Axl [1]; WT-BMDCs, 0.25-1 nM mGas6, 5 min, FIG. 2B): rapid dose-dependent activation
- effect of VSVg pseudotyped virus on stimulatory effect of ligand (Axl activation) (Axl [1]; WT-BMDCs, ligand plus enveloped VSVg pseudotyped virus, dose-response shifted to lower concentrations): dramatically potentiated

Molecule: Protein S: purified human Protein S, TAM ligand (Mer and Tyro3 ligand)
- virus-mediated potentiation of ligand-triggered signaling with MAV-1 (Mer) (Mer [2]; 1 nM hProS plus non-enveloped MAV-1): not seen
- Mer activation by ligand alone (Mer [2]; 0.5-2 nM hProS, 5 min, FIG. 2A): rapid dose-dependent activation
- effect of VSVg pseudotyped virus on stimulatory effect of ligand (Mer activation) (Mer [2]; ligand plus enveloped VSVg pseudotyped virus, dose-response shifted to lower concentrations): dramatically potentiated

Molecule: CCOc1ccn(-c2ccc(F)cc2)c(=O)c1C(=O)Nc1ccc(Oc2ccnc(N)c2Cl)c(F)c1 [BMS-777607]
- concentrations effectively inhibiting ligand-dependent receptor activation (Mer) (Mer [3]): 30 to 300 nM
- effect on infection deficiency of TAM TKO BMDCs (HIV-1 DNA level) (EbGP-pseudotyped virus; TAM TKO-BMDCs): not further reduced
- susceptibility to virus infection (HIV-1 DNA level) versus untreated WT BMDCs (EbGP-pseudotyped virus; WT-BMDCs): much less susceptible

B1: Annexin V: a known PtdSer-binding protein (protein, UniProt P08758 2-320, looked up)
Annexin A5: AQVLRGTVTDFPGFDERADAETLRKAMKGLGTDEESILTLLTSRSNAQRQEISAAFKTLFGRDLLDDLKSELTGKFEKLIVALMKPSRLYDAYELKHALKGAGTNEKVLTEIIASRTPEELRAIKQVYEEEYGSSLEDDVVGDTSGYYQRMLVVLLQANRDPDAGIDEAQVEQDAQALFQAGELKWGTDEEKFITIFGTRSVSHLRKVFDKYMTISGFQIEETIDRETSGNLEQLLLAVVKSIRSIPAYLAETLYYAMKGAGTDDHTLIRVMVSRSEIDLFNIRKEFRKNFATSLYSMIKGDTSGDYKKALLLLCGEDD
- effect on VSVg-HIV potentiation of the Gas6 dose-response curve for Axl activation (Axl [4]): significantly attenuated
- reduction in DENV infection (DENV): ~60%
